Laboratory results: patent US20080009025A1, “PROTEIN KINASE REGULATION” (priority 1999, published 2008)

Target: GST-PDK1[K115A], O15530
Experiment: cell-based or functional assay

GST-PDK1[K115A], O15530, sequence (O15530 whole entry K115A): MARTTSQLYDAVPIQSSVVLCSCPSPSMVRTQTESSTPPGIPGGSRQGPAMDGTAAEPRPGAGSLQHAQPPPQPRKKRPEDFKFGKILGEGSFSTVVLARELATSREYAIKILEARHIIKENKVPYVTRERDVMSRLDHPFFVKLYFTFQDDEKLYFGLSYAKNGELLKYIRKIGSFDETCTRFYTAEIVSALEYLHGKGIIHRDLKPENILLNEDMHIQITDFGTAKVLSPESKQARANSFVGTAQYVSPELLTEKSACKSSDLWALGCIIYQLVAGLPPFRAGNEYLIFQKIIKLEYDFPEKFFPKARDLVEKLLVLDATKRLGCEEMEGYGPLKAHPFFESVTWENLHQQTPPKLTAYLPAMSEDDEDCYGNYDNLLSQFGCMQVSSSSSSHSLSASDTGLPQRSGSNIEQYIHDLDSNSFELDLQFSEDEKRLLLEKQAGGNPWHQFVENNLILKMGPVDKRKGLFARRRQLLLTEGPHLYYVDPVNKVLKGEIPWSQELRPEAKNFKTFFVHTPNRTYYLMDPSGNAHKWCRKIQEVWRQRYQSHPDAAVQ

REPRILSEEEQEMFRDFDYIADWC [PIFtide (24 residue synthetic peptide encompassing the PDK1 binding site on PIF)]
inhibition by 2 µM PIFtide of the activation of S6K1-T2[T412E] and SGK1[T422D] by this PDK1 mutant: 50%
inhibition by 35 µM PIFtide of the activation of S6K1-T2[T412E] and SGK1[T422D] by this PDK1 mutant: > 95%
